Results reported in US20210155670A1 (University of California, published 2021).

Key:
[1] = target: T1, single-chain MHC-I (beta2 microglobulin-(GGGS)4-HLA-A*02:01 ectodomain-AviTag), TEV-digested (unzippered), … (human); experiment: size exclusion chromatography after TEV cleavage
T1 construct: also called peptide receptive MHC-I complex; unzippered MHC-I

[2] = target: single-chain HLA-A*24:02 (beta2 microglobulin-linker-HLA-A*24:02 ectodomain-AviTag), TEV-digested, CHO-derived (human); experiment: co-expression, Strep tag purification, TEV digestion, size exclusion chromatography
[3] = target: T2, Whole Z1 construct (B2m, HLA-A*02:01, FOS), leucine-zippered single-chain MHC-I (human); experiment: co-expression in CHO cells, purification by the Strep tag on TAPBPR, SDS PAGE
T2 construct: also called single-chain-Fos; single-chain MHC-I-B2M protein

B1: TAPBPR (luminal domain, C94A), TEV-digested (unzippered) (other)
chain: KPHPAEGQWRAVDVVLDCFLVKDGAHRGALASSEDRARASLVLKQVPVLDDGSLEDFTDFQGGTLAQDDPPIIFEASVDLVQIPQAEALLHADASGKEVTCEISRYFLQMTETTVKTAAWFMANVQVSGGGPSISLVMKTPRVAKNEVLWHPTLNLPLSPQGTVRTAVEFQVMTQTQSLSFLLGSSASLDCGFSMAPGLDLISVEWRLQHKGRGQLVYSWTAGQGQAVRKGATLEPAQLGMARDASLTLPGLTIQDEGTYICQITTSLYRAQQIIQLNIQASPKVRLSLANEALLPTLICDIAGYYPLDVVVTWTREELGGSPAQVSGASFSSLRQSVAGTYSISSSLTAEGSAGATYTCQVTHISLEEPLGASTQVVPPERRLEGAGGSGGGGSGGGASGGGGSENLYFQS
notes: also called un-zippered (TEV cleaved) TAPBPR; chaperone TAPBPR
binding result [1]: binds | binding result [2]: binds

B2: Whole Z2 construct (TAPBPR, JUN), leucine-zippered TAPBPR with Strep tags (other)
chain: KPHPAEGQWRAVDVVLDCFLVKDGAHRGALASSEDRARASLVLKQVPVLDDGSLEDFTDFQGGTLAQDDPPIIFEASVDLVQIPQAEALLHADASGKEVTCEISRYFLQMTETTVKTAAWFMANVQVSGGGPSISLVMKTPRVAKNEVLWHPTLNLPLSPQGTVRTAVEFQVMTQTQSLSFLLGSSASLDCGFSMAPGLDLISVEWRLQHKGRGQLVYSWTAGQGQAVRKGATLEPAQLGMARDASLTLPGLTIQDEGTYICQITTSLYRAQQIIQLNIQASPKVRLSLANEALLPTLICDIAGYYPLDVVVTWTREELGGSPAQVSGASFSSLRQSVAGTYSISSSLTAEGSAGATYTCQVTHISLEEPLGASTQVVPPERRLEGAGGSGGGGSGGGASGGGGSENLYFQSSGGGGSKVDGGGGGRIARLEEKVKTLKAQNSELASTANMLREQVAQLKQVMNWSHPQFEKGGGSGGGSGGSAWSHPQFEKAA
binding result [3]: binds
